B1: U4/U6 small nuclear ribonucleoprotein Prp31 (Homo sapiens), Q8WWY3 (parent)
chain: MSLADELLADLEEAAEEEEGGSYGEEEEEPAIEDVQEETQLDLSGDSVKTIAKLWDSKMFAEIMMKIEEYISKQAKASEVMGPVEAAPEYRVIVDANNLTVEIENELNIIHKFIRDKYSKRFPELESLVPNALDYIRTVKELGNSLDKCKNNENLQQILTNATIMVVSVTASTTQGQQLSEEELERLEEACDMALELNASKHRIYEYVESRMSFIAPNLSIIIGASTAAKIMGVAGGLTNLSKMPACNIMLLGAQRKTLSGFSSTSVLPHTGYIYHSDIVQSLPPDLRRKAARLVAAKCTLAARVDSFHESTEGKVGYELKDEIERKFDKWQEPPPVKQVKPLPAPLDGQRKKRGGRRYRKMKERLGLTEIRKQANRMSFGEIEEDAYQEDLGFSLGHLGKSGSGRVRQTQVNEATKARISKTLQRTLQKQSVVYGGKSTIRDRSSGTASSVAFTPLQGLEIVNPQAAEKKVAEANQKYFSSMAEFLKVKGEKSGLMST
partner: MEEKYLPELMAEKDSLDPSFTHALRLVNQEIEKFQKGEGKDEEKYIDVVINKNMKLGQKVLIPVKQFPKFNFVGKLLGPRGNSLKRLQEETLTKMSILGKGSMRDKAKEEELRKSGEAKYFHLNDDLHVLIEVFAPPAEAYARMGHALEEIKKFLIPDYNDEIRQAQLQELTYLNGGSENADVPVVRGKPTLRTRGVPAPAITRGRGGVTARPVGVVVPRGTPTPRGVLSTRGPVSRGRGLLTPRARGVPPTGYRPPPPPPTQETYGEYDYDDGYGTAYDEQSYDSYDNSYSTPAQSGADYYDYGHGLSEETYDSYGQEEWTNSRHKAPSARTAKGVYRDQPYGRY

Variants of: B1
Conditions: with khdr3_human KHDRBS3, O75525

Row | effect of a mutation on the interaction | Variant
1 | with no effect | MSLADELLADLEEAAEEEEGGSYGEEEEEPAIEDVQEETQLDLSGDSVKTIAKLWDSKMFAEIMMKIEEYISKQAKASEVMGPVEAAPEYRVIVDANNLTVEIENEVNIIHKFIRDKYSKRFPELESLVPNALDYIRTVKELGNSLDKCKNNENLQQILTNATIMVVSVTASTTQGQQLSEEELERLEEACDMALELNASKHRIYEYVESRMSFIAPNLSIIIGASTAAKIMGVAGGLTNLSKMPACNIMLLGAQRKTLSGFSSTSVLPHTGYIYHSDIVQSLPPDLRRKAARLVAAKCTLAARVDSFHESTEGKVGYELKDEIERKFDKWQEPPPVKQVKPLPAPLDGQRKKRGGRRYRKMKERLGLTEIRKQANRMSFGEIEEDAYQEDLGFSLGHLGKSGSGRVRQTQVNEATKARISKTLQRTLQKQSVVYGGKSTIRDRSSGTASSVAFTPLQGLEIVNPQAAEKKVAEANQKYFSSMAEFLKVKGEKSGLMST [L107V]

— IntAct's records for PubMed 25910212
